We go through 3 molecules from patent US20240391950A1, “PEPTIDE CROSSLINKING AGENT AND CROSSLINKED PEPTIDE WHICH IS CROSSLINKED USING SAID CROSSLINKING AGENT” (Kagoshima University, priority 2020, published 2024).

Experiment [1] deals with human IgG1 (human). Kind of experiment: SPR, BIAcore T200, IgG immobilised on CM5 chip.
In experiment [2] the target is human serum-derived IgG (manufactured by Sigma-Aldrich Co. LLC). Kind of experiment: peptide-immobilised column, human serum IgG, 10% breakthrough.
Experiment [3] addresses human IgG1 (human). Kind of experiment: SPR, BIAcore T200, IgG immobilised on CM5 chip, peptide as analyte. On the technique in general: In SPR one partner is held on a chip, and binding of the other changes the refractive index at the surface.
The target in experiment [4] is human serum-derived IgG (manufactured by Sigma-Aldrich Co. LLC). As to the kind of experiment: 1 mL column with 1 mg peptide immobilised, human serum IgG; 1 wash with 0.1 N NaOH.
The target is the same in experiment [5]. Kind of experiment: 1 mL column with 1 mg peptide immobilised, human serum IgG; 2 washes with 0.1 N NaOH.
Experiment [6] shares this target. As to the kind of experiment: 1 mL column with 1 mg peptide immobilised, human serum IgG; 3 washes with 0.1 N NaOH.
Experiment [7] shares this target. As to the kind of experiment: 1 mL column with 1 mg peptide immobilised, human serum IgG; 4 washes with 0.1 N NaOH.
For experiment [8] the target is unchanged. Kind of experiment: 1 mL column with 1 mg peptide immobilised, human serum IgG; 5 washes with 0.1 N NaOH.
For experiment [9] the target is unchanged. As to the kind of experiment: 1 mL column with 1 mg peptide immobilised, human serum IgG; 10 washes with 0.1 N NaOH.
Experiment [10] has the same target. Kind of experiment: 1 mL column with 1 mg peptide immobilised, human serum IgG; 20 washes with 0.1 N NaOH.
For experiment [11] the target is unchanged. As to the kind of experiment: 1 mL column with 1 mg peptide immobilised, human serum IgG; 30 washes with 0.1 N NaOH.
For experiment [12] the target is unchanged. As to the kind of experiment: 1 mL column with 1 mg peptide immobilised, human serum IgG, 10% breakthrough; 1 wash with 0.1 N NaOH.
Experiment [13] shares this target. Kind of experiment: 1 mL column with 1 mg peptide immobilised, human serum IgG 1 mg/mL at 1 mL/min; 1 wash with 0.1 N NaOH.
Experiment [14] has the same target. As to the kind of experiment: 1 mL column with 1 mg peptide immobilised, human serum IgG, 10% breakthrough; 2 washes with 0.1 N NaOH.
Experiment [15] has the same target. Kind of experiment: 1 mL column with 1 mg peptide immobilised, human serum IgG, 10% breakthrough; 3 washes with 0.1 N NaOH.
Experiment [16] has the same target. As to the kind of experiment: 1 mL column with 1 mg peptide immobilised, human serum IgG, 10% breakthrough; 4 washes with 0.1 N NaOH.
Experiment [17] shares this target. Kind of experiment: 1 mL column with 1 mg peptide immobilised, human serum IgG, 10% breakthrough; 5 washes with 0.1 N NaOH.
For experiment [18] the target is unchanged. As to the kind of experiment: 1 mL column with 1 mg peptide immobilised, human serum IgG, 10% breakthrough; 10 washes with 0.1 N NaOH.
Experiment [19] has the same target. As to the kind of experiment: 1 mL column with 1 mg peptide immobilised, human serum IgG, 10% breakthrough; 20 washes with 0.1 N NaOH.
Experiment [20] shares this target. As to the kind of experiment: 1 mL column with 1 mg peptide immobilised, human serum IgG, 10% breakthrough; 30 washes with 0.1 N NaOH.
Experiment [21] has the same target. As to the kind of experiment: 1 mL column with 1 mg peptide immobilised, human serum IgG 1 mg/mL at 1 mL/min; 2 washes with 0.1 N NaOH.
Experiment [22] has the same target. As to the kind of experiment: 1 mL column with 1 mg peptide immobilised, human serum IgG 1 mg/mL at 1 mL/min; 3 washes with 0.1 N NaOH.
Experiment [23] has the same target. Kind of experiment: 1 mL column with 1 mg peptide immobilised, human serum IgG 1 mg/mL at 1 mL/min; 4 washes with 0.1 N NaOH.
The target is the same in experiment [24]. Kind of experiment: 1 mL column with 1 mg peptide immobilised, human serum IgG 1 mg/mL at 1 mL/min; 5 washes with 0.1 N NaOH.
The target is the same in experiment [25]. Kind of experiment: 1 mL column with 1 mg peptide immobilised, human serum IgG 1 mg/mL at 1 mL/min; 10 washes with 0.1 N NaOH.
For experiment [26] the target is unchanged. As to the kind of experiment: 1 mL column with 1 mg peptide immobilised, human serum IgG 1 mg/mL at 1 mL/min; 20 washes with 0.1 N NaOH.
Experiment [27] has the same target. Kind of experiment: 1 mL column with 1 mg peptide immobilised, human serum IgG 1 mg/mL at 1 mL/min; 30 washes with 0.1 N NaOH.
Experiment [28] has as its target human IgG1 (human). As to the kind of experiment: SPR, BIAcore T200, IgG immobilised on CM5 chip; the text value differs from Table 1 (8.0).

Positions of bridges follow the written chain, without caps; N, C: chain ends. No end group written: not given here.

B1: 1,1-dichloroacetone-crosslinked cyclic peptide of IgG-BP-LongGS (peptide)
peptide: GSGGSGPDCAYHRGELVWCTFH
modifications: not fully specified; the thiol groups of the two Cys residues crosslinked with 1,1-dichloroacetone (1,1-Dichloro-2-propanone) in place of the disulfide bond; Fmoc removed
In the experiment with human IgG1 (human) [1], B1 came in with a fold reduction of affinity against the original peptide of 5 fold. Also, the DBC relative to the original IgG-binding peptide-immobilized column in [2] came out at 74%. The molecule further registered a Kd with human IgG1 (human) [3] of 45.6 nM. For the same molecule, the Variation (%) in maximum binding capacity worked out at 100% in experiment [4]; 100% in experiment [5]; 102% in experiment [6]; 104% in experiment [7]; 103% in experiment [8]; 96.3% in [9]. For the same molecule, the results for the Variation (%) in maximum binding capacity in experiment [10] and in experiment [11] were 86.3% and 90.7%, respectively. The Dynamic binding capacity was 12.8 mg/mL in [12]; 12.8 mg/mL in experiment [14]; 12.2 mg/mL in [15]; 12.2 mg/mL in [16]; 12.4 mg/mL in [17]; 12.2 mg/mL in experiment [18]. Also, the Dynamic binding capacity worked out at 12.4 mg/mL in experiment [19] and 11.6 mg/mL in experiment [20]. In addition, the Variation (%) in dynamic binding capacity was determined as 100% in [12]; 100% in experiment [14]; 95.3% in [15]; 95.3% in experiment [16]; 96.9% in [17]; 95.3% in [18]. Also, the Variation (%) in dynamic binding capacity in experiment [19] was found to be 96.9%; in experiment [20], 90.6%. The Maximum binding capacity in experiment [13] was 9.68 mg; in experiment [21], 9.7 mg; in experiment [22], 9.88 mg; in [23], 10.1 mg; in experiment [24] it was 9.93 mg; in experiment [25], 9.32 mg. Also, the figures for the Maximum binding capacity in experiment [26] and in experiment [27] were 8.35 mg and 8.78 mg, respectively.

B2: IgG-BP-LongGS, original IgG-binding peptide having a disulfide bond (GSGGS-…) (peptide)
peptide: GSGGSGPDCAYHRGELVWCTFH
modifications: disulfide 9-19 (inferred); not fully specified
As to B2, the values for the dissociation constant Kd with human IgG1 (human) [3] and with human IgG1 (human) [28] were 8 nM and 8.2 nM, respectively. The Variation (%) in maximum binding capacity in experiment [4] was found to be 100%; in experiment [8] it was 49.2%. The Dynamic binding capacity in experiment [12] worked out at 17.2 mg/mL; in experiment [17], 8.74 mg/mL. Also, the Variation (%) in dynamic binding capacity in [12] came to 100%; in experiment [17], 50.7%. Besides, the Maximum binding capacity in experiment [13] is 12.4 mg; in experiment [24], 6.09 mg.

B3: 1,1-dichloropinacolin-crosslinked cyclic peptide of IgG-BP-LongGS (peptide)
peptide: GSGGSGPDCAYHRGELVWCTFH
modifications: the thiol groups of the two Cys residues crosslinked with 1,1-dichloropinacolin in place of the disulfide bond; Fmoc removed
Consider B3, for which the fold reduction of affinity against the original peptide with human IgG1 (human) [1] is 14 fold. In addition, in [2], the DBC relative to the original IgG-binding peptide-immobilized column worked out at 96%. Also, the Kd with human IgG1 (human) [3] came to 112 nM. Also, the Variation (%) in maximum binding capacity worked out at 100% in [4], 99.8% in [5], 89.8% in [8] and 87.1% in experiment [9]. The Dynamic binding capacity in [12] amounted to 16.7 mg/mL; in experiment [14] it was 17.2 mg/mL; in experiment [17], 16.2 mg/mL; in experiment [18] it was 14.5 mg/mL. The Variation (%) in dynamic binding capacity in experiment [12] was 100%; in [14], 103%; in experiment [17] it was 97.2%; in experiment [18], 86.6%. The Maximum binding capacity turned out to be 12.1 mg in [13], 12.1 mg in experiment [21], 10.9 mg in experiment [24] and 10.6 mg in experiment [25].

In general, Kd refers to the concentration at which binding is half-saturated. A low value points to tighter binding.
